# Laboratory results published in patent US20260347496 (published 2026).
# Numbering of substitutions follows the chain as printed. Where “and” joins values, the source holds several entries; their conditions need not be identical. Identical values can stand only once.
# T1: CD24 biotinylated (ACRO CD4-H82E9) (human, UniProt P25063)
# T1 chain: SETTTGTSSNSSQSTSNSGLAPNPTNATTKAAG
# T2: CD24 (cell surface) (human)
# T2 chain: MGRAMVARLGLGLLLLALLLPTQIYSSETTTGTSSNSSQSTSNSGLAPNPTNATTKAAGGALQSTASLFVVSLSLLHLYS
# B1: G14 (antibody, V domains shown)
# VH: EVKLEESGGGLVQPGGSMKLSCVASGLTFSNYWMNWVRQSPEKGLEWVALIRLYSDNYAIHYAESVKGRFTISRDDSKSSVYLQMNNLRAEDTGIYYCTTGTDYWGQGTTLTVSS
# VL: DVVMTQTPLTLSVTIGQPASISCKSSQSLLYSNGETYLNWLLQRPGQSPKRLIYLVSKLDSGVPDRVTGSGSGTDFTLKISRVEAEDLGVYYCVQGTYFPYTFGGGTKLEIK
# B2: huG14-301 (antibody, V domains shown)
# VH: EVQLVESGGGLVKPGGSLRLSCAASGLTFSNYWGNWVRQAPGKGLEWVALIRLYSDNYAIHYAESVKGRFTISRDDSKSTVYLQMNSLKTEDTAVYYCTTGTDNWGQGTTVTVSS
# VL: DVVMTQSPLSLPVTLGQPASISCKSSHSLLYSNKRTYLNWLQQRPGQSPRRLIYLVSKLDSGVPDRFSGSGSGTDFTLKISRVEAEDLGVYYCIQGTYFPYTFGQGTKLEIK
# B3: huG14-235 (antibody, V domains shown)
# VH: B2 VH
# VL: B2 VL with P12Y, L15P, Q17R, Q42L, R44K, R50Q
# B4: huG14-234 (antibody, V domains shown)
# VH: B2 VH with N104Y
# VL: B2 VL with L15P, Q17R, R35K, Q42L, R44K, R50Q
# B5: huG14-124 (antibody, V domains shown)
# VH: B2 VH with N104Y
# VL: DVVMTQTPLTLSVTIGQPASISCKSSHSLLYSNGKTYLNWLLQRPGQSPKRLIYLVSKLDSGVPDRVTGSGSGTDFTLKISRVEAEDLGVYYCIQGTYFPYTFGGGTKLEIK
# B6: huG14-124-2 (antibody, V domains shown)
# VH: B2 VH with N104Y
# VL: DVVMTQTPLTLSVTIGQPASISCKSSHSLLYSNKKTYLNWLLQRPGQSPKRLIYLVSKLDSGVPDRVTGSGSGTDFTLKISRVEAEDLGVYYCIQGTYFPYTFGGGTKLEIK
# B7: huG14-124-9 (antibody, V domains shown)
# VH: B2 VH with N104Y
# VL: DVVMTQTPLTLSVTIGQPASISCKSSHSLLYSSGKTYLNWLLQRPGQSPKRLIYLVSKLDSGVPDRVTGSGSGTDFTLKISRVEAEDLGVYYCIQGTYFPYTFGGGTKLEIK
# B8: huG14-124-8 (antibody, V domains shown)
# VH: B2 VH with N104Y
# VL: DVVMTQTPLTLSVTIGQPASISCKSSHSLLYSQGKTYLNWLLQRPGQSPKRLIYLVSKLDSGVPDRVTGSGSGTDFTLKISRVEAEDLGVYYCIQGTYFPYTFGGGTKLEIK
# Target: T1, CD24 biotinylated (ACRO CD4-H82E9)
# Experiment: SPR
row,Kd,Binder
1,12.1 nM,B1
2,7.58 nM,B2
3,2.69 nM,B3
4,3.62 nM,B4

# Target: T1, CD24 biotinylated (ACRO CD4-H82E9)
# Experiment: SPR
# Remark: another data set of the same source
row,Kd,Binder
1,19 nM,B5
2,1.58 nM,B6
3,9.77 nM,B7
4,10.6 nM,B8

# Target: CD24(27-56aa)-GST NEOX-4 (human)
# Sequence (chain, as listed by the source): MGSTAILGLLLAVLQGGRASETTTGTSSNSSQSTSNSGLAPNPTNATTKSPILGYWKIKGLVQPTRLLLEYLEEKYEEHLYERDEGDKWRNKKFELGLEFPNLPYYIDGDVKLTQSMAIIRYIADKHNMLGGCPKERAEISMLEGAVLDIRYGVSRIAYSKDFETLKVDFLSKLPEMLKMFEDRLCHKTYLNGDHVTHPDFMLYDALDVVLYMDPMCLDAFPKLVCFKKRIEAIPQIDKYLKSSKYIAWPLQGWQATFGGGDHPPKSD
# Experiment: ELISA
row,EC50,Binder
1,0.0248 µg/mL and 0.00988 µg/mL,B1

# Target: CD24(27-56aa)-GST NEOX-4 (human)
# Experiment: ELISA
# Remark: another data set of the same source
row,EC50,Binder
1,0.0366 µg/mL,B1

# Target: CD24(27-56aa)-GST NEOX-4 (human)
# Experiment: ELISA
# Remark: another data set of the same source
row,EC50,Binder
1,0.031 µg/mL,B1
2,0.00406 µg/mL,B5

# Target: T2, CD24 (cell surface)
# Experiment: FACS, NALM6
row,EC50,Binder
1,7.3 µg/mL and 18.5 µg/mL,B1
2,0.256 µg/mL,B2
3,0.184 µg/mL,B3
4,0.609 µg/mL,B5
5,0.305 µg/mL,B4

# Target: T2, CD24 (cell surface)
# Experiment: FACS, MDA-MB-468
row,EC50,Binder
1,0.256 µg/mL,B2
2,0.184 µg/mL,B3
3,0.827 µg/mL,B5
4,0.305 µg/mL,B4
